Results reported in paper PMC10754036 (Nature structural & molecular biology, 2018).

Biological target: PSD95, His tagged recombinant (UniProt P78352 1-724)
Assay: BLI

Sequence of PSD95, His tagged recombinant (P78352 whole entry): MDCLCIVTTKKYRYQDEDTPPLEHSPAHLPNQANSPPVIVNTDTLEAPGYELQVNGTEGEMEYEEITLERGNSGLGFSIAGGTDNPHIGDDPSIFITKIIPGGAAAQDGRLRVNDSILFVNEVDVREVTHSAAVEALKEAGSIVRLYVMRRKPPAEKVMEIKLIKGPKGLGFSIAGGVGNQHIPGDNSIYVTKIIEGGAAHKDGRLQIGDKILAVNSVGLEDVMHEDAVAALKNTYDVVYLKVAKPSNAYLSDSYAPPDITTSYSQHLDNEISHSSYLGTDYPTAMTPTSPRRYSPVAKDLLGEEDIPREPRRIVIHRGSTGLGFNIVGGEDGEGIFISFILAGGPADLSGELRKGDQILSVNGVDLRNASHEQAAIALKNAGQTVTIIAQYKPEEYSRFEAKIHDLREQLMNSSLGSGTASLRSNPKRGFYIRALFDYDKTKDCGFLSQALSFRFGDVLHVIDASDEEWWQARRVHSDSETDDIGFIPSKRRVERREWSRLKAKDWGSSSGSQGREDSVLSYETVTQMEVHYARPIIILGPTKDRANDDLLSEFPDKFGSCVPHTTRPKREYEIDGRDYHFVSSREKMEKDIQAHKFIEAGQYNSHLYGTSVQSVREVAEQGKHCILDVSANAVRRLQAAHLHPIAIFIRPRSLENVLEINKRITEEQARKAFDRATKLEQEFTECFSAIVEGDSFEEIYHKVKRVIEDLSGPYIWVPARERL

B1: NS1 of A/Brevig Mission/1/1918 (H1N1) influenza A virus, His tagged recombinant (natural protein)
chain: MDSNTVSSFQVDCFLWHVRKRFADQELGDAPFLDRLRRDQKSLRGRGSTLGLDIETATRAGKQIVERILKEESDEALKMTIASVPASRYLTDMTLEEMSRDWFMLMPKQKVAGSLCIRMDQAIMDKNIILKANFSVIFDRLETLILLRAFTEEGAIVGEISPLPSLPGHTDEDVKNAVGVLIGGLEWNDNTVRVSETLQRFAWRSSNENGRPPLPPKQKRKMARTIKSEV
  Kd: 1.6 µM
